Data reported in patent publication US20250066509A1 (SHANGHAI JMT BIO TECHNOLOGY, published 2025).
Like-named read-outs stand apart in the source and are kept apart here.

T1: human αKlotho extracellular segment protein (human, UniProt Q9UEF7 34-981)
T1 construct: extracellular domain
T1 sequence (looked up): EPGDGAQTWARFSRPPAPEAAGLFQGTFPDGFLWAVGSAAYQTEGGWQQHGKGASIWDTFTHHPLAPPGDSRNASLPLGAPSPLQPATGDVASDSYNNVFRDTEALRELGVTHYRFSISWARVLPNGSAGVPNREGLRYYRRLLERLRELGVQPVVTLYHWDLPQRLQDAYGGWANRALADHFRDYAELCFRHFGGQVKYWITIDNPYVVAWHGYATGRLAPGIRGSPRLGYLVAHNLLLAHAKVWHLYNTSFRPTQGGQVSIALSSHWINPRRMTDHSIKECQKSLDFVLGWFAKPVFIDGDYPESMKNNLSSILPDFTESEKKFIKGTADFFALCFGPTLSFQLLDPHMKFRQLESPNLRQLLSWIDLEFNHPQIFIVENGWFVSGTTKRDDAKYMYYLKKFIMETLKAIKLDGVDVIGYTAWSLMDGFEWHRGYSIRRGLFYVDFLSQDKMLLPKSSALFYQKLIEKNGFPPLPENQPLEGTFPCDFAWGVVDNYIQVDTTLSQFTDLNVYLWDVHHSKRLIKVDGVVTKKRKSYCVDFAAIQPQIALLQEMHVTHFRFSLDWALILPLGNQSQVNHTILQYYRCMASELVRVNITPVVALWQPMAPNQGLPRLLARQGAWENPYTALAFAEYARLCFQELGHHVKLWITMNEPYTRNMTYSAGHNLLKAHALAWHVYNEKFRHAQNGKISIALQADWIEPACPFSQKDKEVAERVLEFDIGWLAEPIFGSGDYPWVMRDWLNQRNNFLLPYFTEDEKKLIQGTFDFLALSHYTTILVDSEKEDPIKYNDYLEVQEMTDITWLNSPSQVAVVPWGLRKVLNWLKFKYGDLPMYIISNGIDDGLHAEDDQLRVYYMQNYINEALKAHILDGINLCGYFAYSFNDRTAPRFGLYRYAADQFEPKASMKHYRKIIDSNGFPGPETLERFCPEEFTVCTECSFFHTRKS

T2: human βKlotho extracellular segment protein (human, UniProt Q86Z14 53-996)
T2 construct: Captured by nickel plate or anti-His antibody, so His-tagged; also called human βKlotho extracellular protein
T2 sequence: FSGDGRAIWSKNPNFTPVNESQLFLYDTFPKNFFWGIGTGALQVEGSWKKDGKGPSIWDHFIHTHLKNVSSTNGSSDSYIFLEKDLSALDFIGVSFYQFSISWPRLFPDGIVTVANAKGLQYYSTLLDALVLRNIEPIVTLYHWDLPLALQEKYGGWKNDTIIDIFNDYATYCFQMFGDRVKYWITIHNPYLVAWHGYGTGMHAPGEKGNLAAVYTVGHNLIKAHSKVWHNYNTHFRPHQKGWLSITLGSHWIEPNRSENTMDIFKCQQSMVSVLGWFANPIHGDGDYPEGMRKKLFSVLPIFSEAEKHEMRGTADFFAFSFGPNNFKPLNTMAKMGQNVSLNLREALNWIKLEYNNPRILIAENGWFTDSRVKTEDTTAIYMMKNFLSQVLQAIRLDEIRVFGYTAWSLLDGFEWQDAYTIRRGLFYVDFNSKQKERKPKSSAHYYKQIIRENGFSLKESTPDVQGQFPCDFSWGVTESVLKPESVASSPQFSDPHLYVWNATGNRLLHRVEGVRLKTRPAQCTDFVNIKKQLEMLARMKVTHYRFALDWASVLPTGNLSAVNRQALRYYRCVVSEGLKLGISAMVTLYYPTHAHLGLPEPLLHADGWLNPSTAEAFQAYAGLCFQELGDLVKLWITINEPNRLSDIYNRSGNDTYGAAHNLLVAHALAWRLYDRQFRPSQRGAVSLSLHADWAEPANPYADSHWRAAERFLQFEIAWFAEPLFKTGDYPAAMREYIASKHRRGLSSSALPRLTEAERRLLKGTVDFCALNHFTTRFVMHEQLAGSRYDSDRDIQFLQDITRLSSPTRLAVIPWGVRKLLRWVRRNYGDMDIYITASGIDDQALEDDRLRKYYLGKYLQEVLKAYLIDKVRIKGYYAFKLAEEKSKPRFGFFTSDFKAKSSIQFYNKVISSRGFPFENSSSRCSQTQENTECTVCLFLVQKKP


Assays:
[1] = molecular target: T3, cynomolgus monkey FGFR1c/βKlotho receptor (cynomolgus monkey, UniProt A0A2K5WB58 1-1044); test: cell-based or functional assay
[2] = molecular target: T3, cynomolgus monkey FGFR1c/βKlotho …; test: cell-based or functional assay; remark: listed apart in the source
[3] = molecular target: T1, human αKlotho extracellular segment …; test: ELISA; extracellular segment protein on nickel-coated plate, antibody titrated, anti-human IgG Fab-HRP
Method: In this Example, the binding of some antibodies in Example 1 to human βKlotho, human αKlotho, and mouse βKlotho was detected using an ELISA assay as described below. A solution of human βKlotho (R&D systems), human αKlotho (R&D systems), or mouse βKlotho (R&D systems) extracellular segment protein at a specified concentration was added to a nickel-coated 96-well plate (Pierce) and the plate was incubated overnight at room temperature. The next day, the plate was blocked with PBS/1% BSA, and then antibodies at various concentrations were added to the wells. After incubating the plate for 1.5 hours at room temperature, a HRP-labeled anti-human IgG Fab secondary antibody was added to the wells and the plate was incubated for 30 minutes at room temperature. After the substrate was added and reacted at room temperature for 15 minutes, the reaction-stopping solution was added. OD₄₅₀ values were read. Exemplary data of antibodies' binding to human βKlotho, human αKlotho, and mouse βKlotho in the ELISA assay are as follows.

[4] = molecular target: T3, cynomolgus monkey FGFR1c/βKlotho …; test: cell-based or functional assay; remark: listed apart in the source
[5] = molecular target: human FGFR4/βKlotho receptor (human, UniProt P22455 22-802); test: cell-based or functional assay
[6] = molecular target: T2, human βKlotho extracellular segment …; test: Gator BLI; antibody captured on Protein A probe, human βKlotho ECD 400 nM-50 nM in solution
Method: The antibodies described above were tested for affinity using Gator (Gator bio). Briefly, an antibody was first captured using a probe coated with Protein A (Gator bio). After the baseline was monitored for 60 seconds, the antibody-to-the antigen binding was determined with the human βKlotho extracellular segment protein described above at varying concentrations (400 nM-50 nM). Then, the dissociation was detected in a K buffer (Gator bio). Meanwhile, the function of an antibody to activate the human or cynomolgus monkey FGFR1c/βKlotho receptor was detected using the reporter-based assay described in Example 2.

T3 sequence (A0A2K5WB58 entry or part of it): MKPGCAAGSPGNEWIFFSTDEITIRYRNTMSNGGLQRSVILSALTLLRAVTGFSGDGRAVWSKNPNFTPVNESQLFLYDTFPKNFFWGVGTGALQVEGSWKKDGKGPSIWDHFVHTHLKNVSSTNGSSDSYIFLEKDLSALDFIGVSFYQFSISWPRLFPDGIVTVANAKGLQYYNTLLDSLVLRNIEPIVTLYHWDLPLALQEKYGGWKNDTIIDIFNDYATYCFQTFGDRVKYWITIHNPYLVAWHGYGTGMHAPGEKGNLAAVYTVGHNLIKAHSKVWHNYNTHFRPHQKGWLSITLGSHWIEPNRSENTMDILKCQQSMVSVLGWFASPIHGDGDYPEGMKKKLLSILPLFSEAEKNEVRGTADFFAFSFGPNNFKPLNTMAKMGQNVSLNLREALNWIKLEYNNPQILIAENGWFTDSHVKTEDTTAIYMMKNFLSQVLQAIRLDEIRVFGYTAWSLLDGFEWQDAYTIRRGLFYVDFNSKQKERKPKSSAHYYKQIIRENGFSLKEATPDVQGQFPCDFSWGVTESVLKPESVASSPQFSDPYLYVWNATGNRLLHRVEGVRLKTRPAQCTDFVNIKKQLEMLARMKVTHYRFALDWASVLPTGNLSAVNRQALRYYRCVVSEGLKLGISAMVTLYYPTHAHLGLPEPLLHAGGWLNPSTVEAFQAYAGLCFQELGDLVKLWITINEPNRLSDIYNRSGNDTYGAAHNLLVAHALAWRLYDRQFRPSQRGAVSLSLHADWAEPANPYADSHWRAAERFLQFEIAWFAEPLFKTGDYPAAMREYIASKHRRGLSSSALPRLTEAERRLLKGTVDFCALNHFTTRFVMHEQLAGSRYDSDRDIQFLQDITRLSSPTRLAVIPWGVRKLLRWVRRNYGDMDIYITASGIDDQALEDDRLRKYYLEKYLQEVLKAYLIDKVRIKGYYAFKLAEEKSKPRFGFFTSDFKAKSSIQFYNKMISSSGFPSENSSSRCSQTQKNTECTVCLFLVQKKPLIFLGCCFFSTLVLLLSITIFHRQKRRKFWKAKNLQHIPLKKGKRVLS
human FGFR4/βKlotho receptor, sequence (P22455 22-802, chain 1 of 2): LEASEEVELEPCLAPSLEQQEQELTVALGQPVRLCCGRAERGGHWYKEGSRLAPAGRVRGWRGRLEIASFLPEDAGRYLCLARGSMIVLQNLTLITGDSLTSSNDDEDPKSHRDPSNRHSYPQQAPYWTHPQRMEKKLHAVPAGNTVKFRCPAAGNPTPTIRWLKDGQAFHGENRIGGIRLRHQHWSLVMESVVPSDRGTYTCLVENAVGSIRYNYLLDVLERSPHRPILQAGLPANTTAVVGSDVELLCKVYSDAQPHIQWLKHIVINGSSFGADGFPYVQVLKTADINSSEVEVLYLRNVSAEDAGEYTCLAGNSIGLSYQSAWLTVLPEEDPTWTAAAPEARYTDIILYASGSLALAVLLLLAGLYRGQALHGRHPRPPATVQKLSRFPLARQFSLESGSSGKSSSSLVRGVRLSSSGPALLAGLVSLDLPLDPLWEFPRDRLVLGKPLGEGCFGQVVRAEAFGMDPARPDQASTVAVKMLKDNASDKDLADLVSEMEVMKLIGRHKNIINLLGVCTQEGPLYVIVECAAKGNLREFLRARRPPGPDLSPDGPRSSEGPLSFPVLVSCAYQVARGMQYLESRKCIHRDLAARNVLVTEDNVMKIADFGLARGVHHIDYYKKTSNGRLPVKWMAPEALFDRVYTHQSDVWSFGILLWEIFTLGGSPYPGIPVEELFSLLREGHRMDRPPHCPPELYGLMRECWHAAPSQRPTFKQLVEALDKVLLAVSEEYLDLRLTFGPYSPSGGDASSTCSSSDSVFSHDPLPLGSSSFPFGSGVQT
human FGFR4/βKlotho receptor, sequence (chain, as listed by the source, chain 2 of 2): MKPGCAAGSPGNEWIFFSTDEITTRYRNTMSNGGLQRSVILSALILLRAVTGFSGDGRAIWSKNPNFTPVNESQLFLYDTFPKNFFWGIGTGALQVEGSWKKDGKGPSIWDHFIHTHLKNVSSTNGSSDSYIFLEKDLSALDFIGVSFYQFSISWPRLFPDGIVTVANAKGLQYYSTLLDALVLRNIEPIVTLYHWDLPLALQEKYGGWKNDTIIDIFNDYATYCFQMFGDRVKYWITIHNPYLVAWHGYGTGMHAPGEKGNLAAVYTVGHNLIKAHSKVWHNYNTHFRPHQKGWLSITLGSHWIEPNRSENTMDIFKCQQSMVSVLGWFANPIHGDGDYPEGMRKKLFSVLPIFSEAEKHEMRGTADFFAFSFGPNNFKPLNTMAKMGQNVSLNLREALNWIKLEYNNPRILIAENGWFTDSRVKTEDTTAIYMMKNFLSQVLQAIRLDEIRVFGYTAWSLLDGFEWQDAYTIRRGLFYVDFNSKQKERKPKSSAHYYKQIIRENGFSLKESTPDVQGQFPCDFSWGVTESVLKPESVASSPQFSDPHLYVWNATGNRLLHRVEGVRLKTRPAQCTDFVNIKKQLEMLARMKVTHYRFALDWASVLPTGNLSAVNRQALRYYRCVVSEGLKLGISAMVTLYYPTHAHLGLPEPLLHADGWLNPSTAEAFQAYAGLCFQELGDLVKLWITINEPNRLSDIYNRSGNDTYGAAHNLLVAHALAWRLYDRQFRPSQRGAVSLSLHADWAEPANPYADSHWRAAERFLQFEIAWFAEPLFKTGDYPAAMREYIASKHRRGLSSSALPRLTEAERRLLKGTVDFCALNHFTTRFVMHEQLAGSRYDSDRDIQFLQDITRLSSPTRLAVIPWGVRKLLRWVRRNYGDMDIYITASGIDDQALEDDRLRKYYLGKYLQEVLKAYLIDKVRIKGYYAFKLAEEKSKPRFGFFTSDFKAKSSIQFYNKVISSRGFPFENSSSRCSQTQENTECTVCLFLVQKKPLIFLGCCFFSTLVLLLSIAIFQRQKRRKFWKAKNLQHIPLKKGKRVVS

Binder	EC50 for antibody-induced cell activation, as determined by the reporter-based assay [2]	further results
CB-8 (antibody, V domains shown) VH: EVQLVQSGAEVKKPGASVKVSCKASGYTFTSYGISWVRQAPGQGLEWMGWISAYNGNTNYAQKLQGRVTMTTDTSTSTAYMELRSLRSDDTAVYYCATLYGSGSLYYWGQGTLVTVSS VL: DIVMTQSPSSLSAPVGDRVTITCQASQDIRNYINWFQQKPGKAPKLLIYAASSLQSGVPSRFSGSGSGTDFTLTISSLQPEDFATYYCQQSYSTPQWTFGQGTKVEIK	2.86 nM	EC50, luciferase reporter-based assay (receptor activation) [1]: 4.89 nM; EC50 [3]: > 100 nM
CB-8-42 (antibody, human IgG1, kappa, V domains shown) VH: EVQLVQSGAEVKKPGASVKVSCKASGYTFTSYGISWVRQAPGQGLEWMGWISAYSGNTNYAQKLQGRVTMTTDTSTSTAYMELRSLRSDDTAVYYCATLLPSGSLYYWGQGTLVTVSS VL: DIVMTQSPSSLSAPVGDRVTITCQASQDIRNYINWFQQKPGKAPKLLIYAASYLQSGVPSRFSGSGSGTDFTLTISSLQPEDFATYYCQQSYSTPQWTFGQGTKVEIKR		EC50, luciferase reporter-based assay (receptor activation) [4]: 0.17 nM; EC50, luciferase reporter-based assay (receptor activation) [5]: > 100 nM
CB-8-40 (antibody, human IgG1, V domains shown) VH: EVQLVQSGAEVKKPGASVKVSCKASGYTFTSYGISWVRQAPGQGLEWMGWISAYSGNTNYAQKLQGRVTMTTDTSTSTAYMELRSLRSDDTAVYYCATLYGSGSLYYWGQGTLVTVSS VL: DIVMTQSPSSLSAPVGDRVTITCQASQDIRNYINWFQQKPGKAPKLLIYAASYLQSGVPSRFSGSGSGTDFTLTISSLQPEDFATYYCQQSYSTPQWTFGQGTKVEIK	0.49 nM	
CB-8-14 (antibody, human IgG1, V domains shown) VH: EVQLVQSGAEVKKPGASVKVSCKASGYTFRSYGISWVRQAPGQGLEWMGWISAYTGNTNYAQKLQGRVTMTTDTSTSTAYMELRSLRSDDTAVYYCATLYGSGSLYYWGQGTLVTVSS VL: DIVMTQSPSSLSAPVGDRVTITCQASQDIRNYINWFQQKPGKAPKLLIYAASSRQSGVPSRFSGSGSGTDFTLTISSLQPEDFATYYCQQSYSTPQWTFGQGTKVEIK	1.08 nM	
CB-8-41 (antibody, human IgG1, V domains shown) VH: EVQLVQSGAEVKKPGASVKVSCKASGYLFTSYGISWVRQAPGQGLEWMGWISAYTGNTNYAQKLQGRVTMTTDTSTSTAYMELRSLRSDDTAVYYCATLYGSGSLYYWGQGTLVTVSS VL: DIVMTQSPSSLSAPVGDRVTITCQASQDIRNYINWFQQKPGKAPKLLIYAASHLQSGVPSRFSGSGSGTDFTLTISSLQPEDFATYYCQQSYSTPQWTFGQGTKVEIK	1.57 nM	
CB-8-24 (antibody, V domains shown) VH: EVQLVQSGAEVKKPGASVKVSCKASGYTFTSYGISWVRQAPGQGLEWMGWISAYNGNTNYAQKLQGRVTMTTDTSTSTAYMELRSLRSDDTAVYYCATLLPSGSLYYWGQGTLVTVSS VL: DIVMTQSPSSLSAPVGDRVTITCQASQDIRNYINWFQQKPGKAPKLLIYAASSLQSGVPSRFSGSGSGTDFTLTISSLQPEDFATYYCQQSYSTPQWTFGQGTKVEIK	0.15 nM	

Further lines, with some results ahead:

EC50 for antibody-induced cell activation, as determined by the reporter-based assay [2]	Binder	further results
0.54 nM	CB-8-37 (antibody, human IgG1, V domains shown) VH: EVQLVQSGAEVKKPGASVKVSCKASGYAFTSYGISWVRQAPGQGLEWMGWISAYSGNTNYAQKLQGRVTMTTDTSTSTAYMELRSLRSDDTAVYYCATLYGSGSLYYWGQGTLVTVSS VL: DIVMTQSPSSLSAPVGDRVTITCQASQDIRNYINWFQQKPGKAPKLLIYAASFLQSGVPSRFSGSGSGTDFTLTISSLQPEDFATYYCQQSYSTPQWTFGQGTKVEIK	
0.55 nM	CB-8-23 (antibody, human IgG1, V domains shown) VH: EVQLVQSGAEVKKPGASVKVSCKASGYTFTSGGISWVRQAPGQGLEWMGWISAYNGRTNYAQKLQGRVTMTTDTSTSTAYMELRSLRSDDTAVYYCATLYGSGSLYYWGQGTLVTVSS VL: DIVMTQSPSSLSAPVGDRVTITCQASQDIRNYINWFQQKPGKAPKLLIYAASFLQSGVPSRFSGSGSGTDFTLTISSLQPEDFATYYCQQSYSTPQWTFGQGTKVEIK	Kd [6]: 7.08 nM; koff [6]: 0.000173 s⁻¹; kon [6]: 24500 M⁻¹ s⁻¹
0.71 nM	CB-8-26 (antibody, human IgG1, V domains shown) VH: EVQLVQSGAEVKKPGASVKVSCKASGYTFKSYGISWVRQAPGQGLEWMGWISAYNGRTNYAQKLQGRVTMTTDTSTSTAYMELRSLRSDDTAVYYCATLYGSGSLYYWGQGTLVTVSS VL: DIVMTQSPSSLSAPVGDRVTITCQASQDIRNYINWFQQKPGKAPKLLIYAASGLQSGVPSRFSGSGSGTDFTLTISSLQPEDFATYYCQQSYSTPQWTFGQGTKVEIK	
0.88 nM	CB-8-13 (antibody, human IgG1, V domains shown) VH: EVQLVQSGAEVKKPGASVKVSCKASGYRFTSYGISWVRQAPGQGLEWMGWISAYNGRTNYAQKLQGRVTMTTDTSTSTAYMELRSLRSDDTAVYYCATLYGSGSLYYWGQGTLVTVSS VL: DIVMTQSPSSLSAPVGDRVTITCQASQDIRNYINWFQQKPGKAPKLLIYAASRLQSGVPSRFSGSGSGTDFTLTISSLQPEDFATYYCQQSYSTPQWTFGQGTKVEIK	
